# Reference: patent publication US11447809B2, “Evolution of tRNA synthetases” (President and Fellows of Harvard College, priority 2017, dated 2022)
# B1: MbPylRS(IPYE): M. barkeri PylRS with transplanted PACE mutations V31I, T56P, H62Y, A100E (protein, UniProt Q6WRH6 1-419, looked up, variant V31I T56P H62Y A100E)
# Pyrrolysine--tRNA ligase: MDKKPLDVLISATGLWMSRTGTLHKIKHHEISRSKIYIEMACGDHLVVNNSRSCRPARAFRYHKYRKTCKRCRVSDEDINNFLTRSTESKNSVKVRVVSEPKVKKAMPKSVSRAPKPLENSVSAKASTNTSRSVPSPAKSTPNSSVPASAPAPSLTRSQLDRVEALLSPEDKISLNMAKPFRELEPELVTRRKNDFQRLYTNDREDYLGKLERDITKFFVDRGFLEIKSPILIPAEYVERMGINNDTELSKQIFRVDKNLCLRPMLAPTLYNYLRKLDRILPGPIKIFEVGPCYRKESDGKEHLEEFTMVNFCQMGSGCTRENLEALIKEFLDYLEIDFEIVGDSCMVYGDTLDIMHGDLELSSAVVGPVSLDREWGIDKPWIGAGFGLERLLKVMHGFKNIKRASRSESYYNGISTNL
# B2: MmPylRS(IPYE): M. mazei PylRS with transplanted PACE mutations V31I, T56P, H62Y, A100E (protein, UniProt Q8PWY1 1-454, looked up, variant V31I T56P H62Y A100E)
# Pyrrolysine--tRNA ligase: MDKKPLNTLISATGLWMSRTGTIHKIKHHEISRSKIYIEMACGDHLVVNNSRSSRPARALRYHKYRKTCKRCRVSDEDLNKFLTKANEDQTSVKVKVVSEPTRTKKAMPKSVARAPKPLENTEAAQAQPSGSKFSPAIPVSTQESVSVPASVSTSISSISTGATASALVKGNTNPITSMSAPVQASAPALTKSQTDRLEVLLNPKDEISLNSGKPFRELESELLSRRKKDLQQIYAEERENYLGKLEREITRFFVDRGFLEIKSPILIPLEYIERMGIDNDTELSKQIFRVDKNFCLRPMLAPNLYNYLRKLDRALPDPIKIFEIGPCYRKESDGKEHLEEFTMLNFCQMGSGCTRENLESIITDFLNHLGIDFKIVGDSCMVYGDTLDVMHGDLELSSAVVGPIPLDREWGIDKPWIGAGFGLERLLKVKHDFKNIKRAARSESYYNGISTNL
# System: luciferase position 361 and sfGFP amber suppression
# Experiment: Amber suppression assays using several different reporters (luciferase and sfGFP)
# Assay type: cell-based, E. coli
# Conditions: BocK; IPYE variant vs parent enzyme; FIGS. 9B-9D
# Protocol: S1030 cells (25 μL) were electroporated with the appropriate plasmid(s) and recovered in SOC media (New England Biolabs) for 1 h while shaking at 37° C. Transformed cells were plated and grown overnight at 37° C. on LB agar containing the antibiotics required for plasmid maintenance. Single colonies were used to inoculate 2-3 mL of DRM containing antibiotics and were grown overnight at 37° C. while shaking at 230 rpm. The saturated overnight cultures were diluted 100-fold in a 96-well deep well plate using 1 mL of DRM containing the required antibiotic and supplemented with 1 mM ncAA where denoted. […] The plate continued to incubate with shaking at 37° C. for an additional 2-3 h until maximum luminescence signal was observed. Each luminescence measurement was taken on 150 μL of each culture, which had been transferred to a 96-well black wall, clear bottom plate (Costar). The A600 and luminescence measurements from each well were taken using an Infinite M1000 Pro microplate reader (Tecan). […] The raw luminescence value from each well was divided by the background-subtracted A600 value of the corresponding well to provide the luminescence value normalized to cell density. […]
row,Molecule,activity in amber suppression assays using several different reporters
1,B1,dramatically enhanced
2,B2,"improved, albeit more modestly"
